Numbering of substitutions follows the chain as printed. In names and notes the source's numbering stands.
Legend:
[1] = target: T1, CD22 antigen on the surface of target cells (Raji, REH, NALM6, JVM2, 3E09, 3D11) (human, UniProt P20273 20-847); assay: cell-based or functional assay
[2] = target: T1, CD22 antigen on the surface of target …; assay: cell-based or functional assay; remark: listed apart in the source
[3] = target: T1, CD22 antigen on the surface of target …; assay: cell-based or functional assay; remark: listed apart in the source
[4] = target: T2, CD22-FITC protein (Acro Biosystem, Cat. No. SI2-HF2H6) (UniProt P20273 20-687, FITC label); assay: flow cytometry of CAR-T cells stained with FITC-CD22 protein and APC anti-CD8, quadrant gate
T2 construct: Bought reagent; also called FITC-CD22 protein; CD22 protein
Experimental: Cell samples were stained with APC mouse anti-human CD8, PE anti-human EGFR and FITC-CD22 protein.
When the cells were cultured to the 6th or 7th day, the expression of CAR molecules, tEGFR molecules and CD8 on the cell surface was detected by flow cytometry. […] On day 6 of cell culture, approximately 5 ×10^5 cells were removed from each sample individually, and the medium was removed by centrifugation at 500 g. […] The mixtures were mixed well and incubated at 4° C. in the dark for 20 min. After completion of incubation, the cells were washed twice with PBS+1% HSA solution again, re-suspended in 200 μL of PBS+1% HSA solution, and then loaded onto the instrument for testing.

human CD22 [5] = target: T3, human CD22 (human, UniProt P20273 20-687, limits assumed); assay: ForteBio, antibody in the form of IgG, avid
T3 construct: CD22-llama-Fc and CD22-his are named only for the yeast library sorting; also called CD22 antigen

human CD22 [6] = target: T3, human CD22; assay: ForteBio, antibody in the form of Fab, monovalent

B1: clone 80 CAR (CD22-targeted chimeric antigen receptor, clone 80 scFv with CD8α hinge and transmembrane region, 4-1BB and CD3z), on reporter cells or CAR-T cells (other)
chain: QVQLQESGPGLVKPSGTLSLTCAVSGGSISSSNWWSWVRQPPGKGLEWIGEIYHSGSTNYNPSLKSRVTISVDKSKNQFSLKLSSVTAADTAVYYCARLPGYESAFDIWGQGTMVTVSSGGGGSGGGGSGGGGSEIVLTQSPGTLSLSPGERATLSCRASQSVSSSYLAWYQQKPGQAPRLLIYGASSRATGIPDRFSGSGSGTDFTLTISRLEPEDFAVYYCQQAGLFPYTFGGGTKVEIKFVPVFLPAKPTTTPAPRPPTPAPTIASQPLSLRPEACRPAAGGAVHTRGLDFACDIYIWAPLAGTCGVLLLSLVITLYCNHRNKRGRKKLLYIFKQPFMRPVQTTQEEDGCSCRFPEEEEGGCELRVKFSRSADAPAYQQGQNQLYNELNLGRREEYDVLDKRRGRDPEMGGKPRRKNPQEGLYNELQKDKMAEAYSEIGMKGERRRGKGHDGLYQGLSTATKDTYDALHMQALPPRGSGEGRGSLLTCGDVEENPG
notes: Chimeric antigen receptor on the cell surface; also called clone80-bbz
[1]
  positive rate of CD107a in the CD8+/CAR+ cell population, target cell 3D11 (CD22 knockout/knockdown Raji): 18.9%
  positive rate of CD107a in the CD8+/CAR+ cell population, target cell JVM2: 32.8%
  positive rate of CD107a in the CD8+/CAR+ cell population, target cell NALM6: 59.7%
  positive rate of CD107a in the CD8+/CAR+ cell population, target cell REH: 62.3%
  positive rate of CD107a in the CD8+/CAR+ cell population, target cell raji: 39.7%
[2]
  in vitro cell killing efficiency, target cells NALM6-ffLuc, 17 h, E:T 0.5:1: 15.3%
  in vitro cell killing efficiency, target cells NALM6-ffLuc, 17 h, E:T 1:1: 58.5%
  in vitro cell killing efficiency, target cells NALM6-ffLuc, 17 h, E:T 2:1: 90.5%
[3]
  in vitro cell killing efficiency, target cells REH-ffLuc, 17 h, E:T 0.5:1: -18.2%
  in vitro cell killing efficiency, target cells REH-ffLuc, 17 h, E:T 1:1: 40.2%
  in vitro cell killing efficiency, target cells REH-ffLuc, 17 h, E:T 2:1: 89%
[4]
  percent of cells in Q1 (FITC-CD22 positive, APC-CD8 negative): 27.5%
  percent of cells in Q2 (FITC-CD22 positive, APC-CD8 positive): 17.6%

B2: clone 28 CAR (CD22-targeted chimeric antigen receptor, clone 28 scFv with CD8α hinge and transmembrane region, 4-1BB and CD3z), on reporter cells or CAR-T cells (other)
chain: QVQLQESGPGLVKPSETLSLTCTVSGGSISSYYWSWIRQPAGKGLEWIGRIYTSGSTNYNPSLKSRVTMSVDTSKNQFSLKLSSVTAADTAVYYCARDLYRDGMDVWGQGTTVTVSSGGGGSGGGGSGGGGSDIQMTQSPSTLSASVGDRVTITCRASQSISSWLAWYQQKPGKAPKLLISDASSLESGVPSRFSGSGSGTEFTLTISSLQPDDFATYYCQQANTYSPTFGGGTKVEIKFVPVFLPAKPTTTPAPRPPTPAPTIASQPLSLRPEACRPAAGGAVHTRGLDFACDIYIWAPLAGTCGVLLLSLVITLYCNHRNKRGRKKLLYIFKQPFMRPVQTTQEEDGCSCRFPEEEEGGCELRVKFSRSADAPAYQQGQNQLYNELNLGRREEYDVLDKRRGRDPEMGGKPRRKNPQEGLYNELQKDKMAEAYSEIGMKGERRRGKGHDGLYQGLSTATKDTYDALHMQALPPRGSGEGRGSLLTCGDVEENPG
notes: Chimeric antigen receptor on the cell surface; The entry ends with GSG and the T2A remnant; also called clone28-bbz
[1]
  positive rate of CD107a in the CD8+/CAR+ cell population, target cell 3D11 (CD22 knockout/knockdown Raji): 16.9%
  positive rate of CD107a in the CD8+/CAR+ cell population, target cell JVM2: 43.5%
  positive rate of CD107a in the CD8+/CAR+ cell population, target cell NALM6: 73.5%
  positive rate of CD107a in the CD8+/CAR+ cell population, target cell REH: 70.4%
  positive rate of CD107a in the CD8+/CAR+ cell population, target cell raji: 54.8%
[2]
  in vitro cell killing efficiency, target cells NALM6-ffLuc, 17 h, E:T 0.5:1: -26.8%
  in vitro cell killing efficiency, target cells NALM6-ffLuc, 17 h, E:T 1:1: 13.8%
  in vitro cell killing efficiency, target cells NALM6-ffLuc, 17 h, E:T 2:1: 76.1%
[3]
  in vitro cell killing efficiency, target cells REH-ffLuc, 17 h, E:T 0.5:1: -50.1%
  in vitro cell killing efficiency, target cells REH-ffLuc, 17 h, E:T 1:1: -23.9%
  in vitro cell killing efficiency, target cells REH-ffLuc, 17 h, E:T 2:1: 63.8%
[4]
  percent of cells in Q1 (FITC-CD22 positive, APC-CD8 negative): 23.3%
  percent of cells in Q2 (FITC-CD22 positive, APC-CD8 positive): 12.7%

B3: clone 17 anti-CD22 antibody in the form of IgG (antibody, V domains shown)
VH: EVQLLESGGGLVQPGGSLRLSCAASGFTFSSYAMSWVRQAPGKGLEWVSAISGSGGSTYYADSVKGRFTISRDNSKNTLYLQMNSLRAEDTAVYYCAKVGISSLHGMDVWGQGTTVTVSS
VL: DIQMTQSPSTLSASVGDRVTITCRASQSISSWLAWYQQKPGKAPKLLIYKASSLESGVPSRFSGSGSGTEFTLTISSLQPDDFATYYCQQYERFPWTFGGGTKVEIK
notes: Fully human; tested 'in the form of IgG'
Human CD22 [5]
  Kd: 1.6 nM
  Response: 0.62 nm
  koff: 0.0002 s⁻¹
  kon: 130000 M⁻¹ s⁻¹

B4: clone 28 anti-CD22 antibody in the form of Fab (Fab, V domains shown)
VH: QVQLQESGPGLVKPSETLSLTCTVSGGSISSYYWSWIRQPAGKGLEWIGRIYTSGSTNYNPSLKSRVTMSVDTSKNQFSLKLSSVTAADTAVYYCARDLYRDGMDVWGQGTTVTVSS
VL: B3 VL with Y49S, K50D, Y91A, E92N, R93T, F94Y, P95S, W96P
notes: Tested 'in the form of Fab'
Human CD22 [6]
  Kd: 0.94 nM
  Response: 0.25 nm
  koff: 0.00027 s⁻¹
  kon: 280000 M⁻¹ s⁻¹

B5: clone 17 anti-CD22 antibody in the form of Fab (Fab, V domains shown)
VH: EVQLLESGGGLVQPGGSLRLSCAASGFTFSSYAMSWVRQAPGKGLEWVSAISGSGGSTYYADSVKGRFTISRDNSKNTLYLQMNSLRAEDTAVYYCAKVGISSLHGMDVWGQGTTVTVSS
VL: B3 VL
notes: Tested 'in the form of Fab'
Human CD22 [6]
  Kd: 8.1 nM
  Response: 0.19 nm
  koff: 0.0017 s⁻¹
  kon: 210000 M⁻¹ s⁻¹

B6: clone 28 anti-CD22 antibody in the form of IgG (antibody, V domains shown)
VH: B4 VH
VL: B3 VL with Y49S, K50D, Y91A, E92N, R93T, F94Y, P95S, W96P
notes: as for B3
Human CD22 [5]
  Kd: 0.97 nM
  Response: 0.81 nm
  koff: 0.0002 s⁻¹
  kon: 210000 M⁻¹ s⁻¹

B7: clone 80 anti-CD22 antibody in the form of IgG (antibody, V domains shown)
VH: QVQLQESGPGLVKPSGTLSLTCAVSGGSISSSNWWSWVRQPPGKGLEWIGEIYHSGSTNYNPSLKSRVTISVDKSKNQFSLKLSSVTAADTAVYYCARLPGYESAFDIWGQGTMVTVSS
VL: EIVLTQSPGTLSLSPGERATLSCRASQSVSSSYLAWYQQKPGQAPRLLIYGASSRATGIPDRFSGSGSGTDFTLTISRLEPEDFAVYYCQQAGLFPYTFGGGTKVEIK
notes: as for B3
Human CD22 [5]
  Kd: 0.82 nM
  Response: 0.93 nm
  koff: 0.0002 s⁻¹
  kon: 240000 M⁻¹ s⁻¹

B8: clone 80 anti-CD22 antibody in the form of Fab (Fab, V domains shown)
VH: B7 VH
VL: B7 VL
notes: Tested 'in the form of Fab'
Human CD22 [6]
  Kd: 13 nM
  Response: 0.24 nm
  koff: 0.0046 s⁻¹
  kon: 360000 M⁻¹ s⁻¹

Reference: patent publication US12448453 (NANJING IASO BIOTECHNOLOGY, dated 2025)
